According to PMC7241105 (bioRxiv, 2020):

Target: SARS-CoV-2 receptor binding domain (RBD) (SARS-CoV-2, UniProt P0DTC2)
Assay: BLI

Binder | binding result
CV5 (antibody, V domains shown) VH: QVQLVQSGAEVKKPGASVKVTCKASGYTFTSYYLHWVRQAPGQGLEWMGIINPSGGTTSYAQKFQGRVTMTRDTSTSTVYMELSSLRSEDTAVYYCARAGRRYSSSDDGAFDIWGQGTMVTVSS VL: not shown | binds
CV43 (antibody, V domains shown) VH: QVQLVESGGGVVQPGRSLRLSCAASGFTFSSYAMHWVRQAPGKGLEWVAVISYDGSNKYYADSVKGRFTISRDNSKNTLYLQMNSLRAEDTAVYYCARVTVVHFDYWGQGTLVTVSS VL: NFMLTQPHSVSESPGKTVTISCTGSSGSIASNYVQWYQQRPGSAPTTVIYEDNQRPSGVPDRFSGSIDSSSNSASLTISGLKTEDEADYYCQSYDSSNWVFGGGTKLTVL | binds
